According to the DeepSol protein solubility set:

Experiment: soluble on expression in E. coli; label from the status in PepcDB or PDB records

MKPIACLFAAFAALPVLAHAQTVQMPDVLAAEHALSLGKPVTATIDLTRCTGDTATTPAGTTRGGVTVNPYRIQPDNTLSFSDTHFTVRSDGTPITQFLRYSIDTSGTARFSSYIFAMPAYTLQSQVSYTCKLGEGVKLFARFLEHHHHHH
soluble on expression in E. coli: soluble

MSDTEKYVARPAVGHLPLDDSWTPTSAEAIQDEPSPDEEEYKRQYTCRMVPNEGPLYQHYMLEAVAVADDEVKIPLEEVKEEPVELPAAVVHEVVALKPATRRESSISSDSGRGADCSTTSASALTSNTSMRRDRLVGTSNFGSQRSLWCELPEVRAAGLLEKLDDECKLRQEAYFEVITSEASYLRSLNVLITHFMASPQMLGSKSALSVLSDSDRKHLFSNIFAVRDCSERLLCDLETRLEENLILDDICDILSDHFDKHFEVYIKYCSNQVYQDRTLRRLKTENPGFLSAVQRLEENKQCQGLDMRSFLMLPMQRVTRYPLLLYAILDRITTTDDRYKTATDALTSSNRVVRDCNEGARRMERTEQLLDIDRRLIYKDADLKRIPLVSNSRYLVKKGVLTQLVERRSSNILQSRQKARTLHVFLFSDMIMITKKKLNGTFVCKDYAARRFVDMQPIEPDNPKIPLGATSNLVGRPHLFLCTLMRNARDKQTELLLSADSETDRERWLSAVRPPTSTNPEEKIYAEWDCPQALVVHAYQPSQADELQLNIGDSLNILRKMPDGWLYGERAGDGLGGWFPSSYVQAIINDHTRANNYRQRLRIIQAASGWHGNASPSSTRSGGMPLMDRLRRMSNPKTYFQSGTVGL
soluble on expression in E. coli: not soluble

MSLNVIDTLPAFRDYCSELASSHGSLAADAERASGFRYGHEDWLVQFKRDGAGIGLLDPQALAAAGADWNDFNRAVGDAVWILHDSLQDLPGFDELGMEPQRLFDTEIAARLLGLKRFGLAAVTEHFLGLTLAKEHSAADWSYRPLPRDWRNYAALDVELLIELETKMRAELKRQGKMEWAQEEFDYALKEGLGPRKEHLIPWMHVSHITEVMRDRQALAIVRALWTRRDELAREYDIAPTLLLSDSSIIEVAKRKPHNAAQFRSIRSINERVRIHTDSEQDKMFERYAPIQRKIKPSMWKNIIQDALALPPSEWPDVDGGAARRHESQSASAPKSIRVWKERYPERLQVLNRVRKAVSQIAEDTRTPVEIVIKPQYLRNLCWTDEPRKRDVARFLSEQGARDWQVSLVAESVSRAIEGHHHHHH
soluble on expression in E. coli: not soluble

MDASYSSSRPKKLNYTSYTSLKSVLKFLSVKKREQIHIHIPELRSVNALLPYAHEEVILDKFEIMIQNRSYLFKKLAEKAPKPEGVARRRPEYEYAEYNRLLVMDLGPPSLFDMNDLHHLWRPMGNQGPDRLSFGDLDSLEKRRLRFRRENRLQDSSEHGRTGNCEITISEEDGTAITVTKEIPVDIAYEKIFDAFFSNGSRIKLLKVQSFPDFLMRKDLLTLKVREIDCSSTASIDILELAPFLDHSSLKKLTLNVTNTNVDLLMLPLVQNCPVLRIVEAGTFLSRMLKTTLLSALQNQKLEIFPDIVIIESFPQLVQSWATSSRPIGSLVQVGIREDYKEVLDILDFLKESHGAHPAIIKKLENTDFSNGLSMLIDGDLELAIYGGGKISEEGLTRPQPCKWSLCMEVMKRGDTIPR
soluble on expression in E. coli: not soluble

YSQVQLPFNDLLYIETSSRSHRVVLYTEKDRMEFTATLGDILKQEPRLFQCHRSFLVNPLNIFKVDRIDRLVYFQNGTTCLVSRNKVRDIVSIVDKYQKDRKR
soluble on expression in E. coli: not soluble

MAHHHHHHMFSSSTGAGAAAAAKPSAGPPSVALATVTVNEDPNIEVLLASKRIQKLTRATDALIARDFVLREEEAILDDLEAYIISLESEVRKAEFQTEELRSRSSLLRPGKRCAIAGENVELSALWNAYGSDMGYLVKRHSLRLAVLEKALATVSTRNPELPVPKPLPPPPVTKTSKTMSAMRDMSQRQKAPS
soluble on expression in E. coli: not soluble

MGSDKIHHHHHHAACEKDPDMDKLDNDYLVYTNYDKKADFKQFSTYYIPDSVLVIGDKKDPEYWKGEAAEAIINAYKENLNSKGFTYTDNKDAADLGIQVSYVQSTYYFTDYGQPEWWWNYPGYWDAPYWGNWGGWYYPYVVNYSITTNSFLTEIMNLKAPEGEKQKLPVLWSSFLSGPASYSGKVNQTLVVRAINQSFAQSPYLTNK
soluble on expression in E. coli: not soluble

MFASKDINDLIAIVAGLRNRESGCIWNIKQTFESLIPYMLEEVYEVIDAIERKNRTDLCDELGDLLLQVVYHATIAQEEGSFTFEDVVYAITSKMIRRHPHVFGNAEQKKRGFIEDEWERIKKTERAEQNKCYEAVNLPTNSTTSILEKIKKLQPAHQEALALQKAAATVGFNWHESHKFFAKIEEEINELKDAIKNDKTSDIEAEFGDLYFSLLNLALHLNIDSQKALKKTNTKFRNRFTYIEESLYTQSKTLANTSLKEMESLWNKAKNKK
soluble on expression in E. coli: not soluble

MSLKDFAGRTAFVTGGANGVGIGLVRQLLNQGCKVAIADIRQDSIDKALATLEAEGSGPEVMGVQLDVASREGFKMAADEVEARFGPVSILCNNAGVNLFQPIEESSYDDWDWLLGVNLHGVVNGVTTFVPRMVERVKAGEQKGGHVVNTASMAAFLAAGSPGIYNTTKFAVRGLSESLHYSLLKYEIGVSVLCPGLVKSYIYASDDIRPDALKGEVKPVDKTAVERLAGVHEFGMEPDVIGARVIEAMKANRLHIFSHPDHKEELREVFDEIIAEYQDYPKDPGYDQRVAFEKFRADSFAEARRQSRAADEGHHHHHH
soluble on expression in E. coli: soluble

KLKSVEKKLSESESRLELALEAANMGTWSWNIKRNEIFWSEQVLYIFGIKPEEFKGDFESYLNLIPSNERVQVEEYITNVLAKLQKEFFFDHSIQTPSGVKKRVYCKGKLYADHAGMPDSMTGVVLDVT
soluble on expression in E. coli: not soluble

MKTAQEFRAGQVANINGAPWVIQKAEFNKSGRNAAVVKMKLKNLLTGAGTETVFKADDKLEPIILDRKEVTYSYFADPLYVFMDSEFNQYEIEKDDLEGVLTFIEDGMTDICEAVFYNDKVISVELPTTIVRQIAYTEPAVRGDTSGKVMKTARLNNGAELQVSAFCEIGDSIEIDTRTGEYKSRVKA
soluble on expression in E. coli: not soluble

MGSDKIHHHHHHMKEISCGRRTRVSFGKSREPLPIPDLVEIQKSSYRRFLEEGLLEVLKKFSPIYSQATRSDLRKSDRGFALEFVSTRTGEPAIDPLECKAKGLTYSVPIYATARLTDMKSGEMKEEEVFLGYIPYMTDRGTFIINGAERVVVNQIVVSPGLYFSSEYIDREEYGGYFLPSRGAWLEVILDPYDGVLYAGLDGKKVNLFLFLKTIGYEKDEDILSLYPTYLDADDEDSLLLHVGSILLEDIYDGGRKIAEKWDILTKDLAERILMIDDINQIKIVHPIAQNTFEKMLEVVSSSSEEGEEEEEKTKIYGLNEVTVVDAYLEIFRRLRPEELPRINAAKRYLHDLFFNPERYDLSEVGRYKVNERLRNAYIRYLIEVEGEDPEEARKKVYNETSLVLKPLDIVLASRILFDYFERRYVNDFEIDSYELKNLIRIFKEEYLEKRKTAPYDLRKLVSVFRRNYGVTSDLGVFAAIRYVSNINKELPSIPFDTKDHLGNKRVRTVGELVQREFERLFARAQKAIQERLTLINSLSKVSIQSLINIKSIISTVNQFFAMNQLSQFMDQVNPLSELTHKRRVSAVGPGGLRRESKVFEARNVHYSQYGRLCPIETPEGANIGFITSLAIYAKIDEYGFLMTPYRKVVNGKVTDEVVYLRANEEEEYKIIPATTPVDEEGNIIPERVVARMGEDIRLVPKEEVDFMDVSTKQPFSVSASLIPFLEHDDASRALMGSNMQRQAVPLLKTEAPLVGTGMEWEAAKNSGYVILAEHDGIVKEVDAARVVVHRTDENGNLMYDDKGNPVVDEYRLLKFVRSNQDTMINQKPIVNEGDFVKKGDPIADGPATDMGELALGRNILVAFMPWEGYNYEDAILVSQELLEEDVFTSIHIEVYETQARETRLGPEEITADIPNVSKELLKNLDENGIIRVGAYVVSDYGVGSQAILVGKVTPKGEGDTTPEEKIIRSVFGERGRDVKDTSLRLPHGVEGRVIRVDVYDQNDIAELGAGVLKLVRVYVASRKTLDIGDKLAGRHGNKGVVSNILPKEDMPFLPDGTPVQMVLNPLGIPSRMNVGQILETHLGWLAKLTGKWFATPVFEGAKEDEILRPLYEERKKRGLHLGDDENNPNGKVVLRDGRTGEPFDNPVVVGYMYMLKLIHIAKEKIHARSTGPYSLIHQQPLGGKSHFGGQRLGEMEVWALEAYGAAHTLAEMLTIKSDDIKGRNEAYKAILKNMNIPEPGVPESFRVLIKELRGLALDVRLYDENGNEIDIDKY
soluble on expression in E. coli: not soluble

MEALRASYGDSSSDSDTDDLSPASPVTANSGEKDSISLPPPPLALLDSIVSTGSLDFFSTEPGVRVRNFPHVDGNYALHVYVPVCIPPLPKKEIVCFLKKVASVVPHLHLVEADVPLSILCKDDQKFERALGREFHISLGRNVPLRVHQINSVISMLRQKLQLQKRYLIDFNKWEVFVNDDHTRSFLSLEITTSGLSEISKQIDAVNEVYKLHNLPEFYKDPRPHISLVWALGDIRTSLKGAVDVELRKLRAGGCVQNRIFTSKFCGIECKIGNKTHKICKLPDE
soluble on expression in E. coli: soluble

MISTNGITMQFGAKPLFENVSVKFGEGNRYGLIGANGSGKSTFMKILGGDLEQTAGEVAIENGVRLGKLRQDQFAYEDMRVLDVVMMGHTEMWAAMTERDAIYANPEATEDDYMKAAELEAKFAEYDGYTAEARAAELLSGVGISEDLHNAKMAEVAPGFKLRVLLAQALFSKPDVLLLDEPTNNLDINTIRWLEGVLNQYDSTMIIISHDRHFLNEVCTHMADLDYNTITIYPGNYDDYMLASAQSRERALKDNAKAKEKLQELQEFVARFSANKSKARQATSRLKQADKIKSEMVEVKPSTRQNPYIRFEADEKAKLHRQAVEVEKLAKRFETQLFKNLNFILEAGQRLAIIGPNGAGKSTLLKLLAGAYNPEYSDGLLPDEGTIKWAEKASVGYYPQDHENDFDVDMDLSEWMRQWGQEGDDEQVIRGTLGRLLFGSNDVVKKVKVLSGGEKGRMLYGKLLLLKPNVLVMDEPTNHMDMESIESLNMALEKYNGTLIFVSHDRQFVSSLATQIIELDGKGGYEHYLGDYESYLEKKGVA
soluble on expression in E. coli: not soluble

MENDLKKLTKEIVGRLKNKSVKELLSYAIFNEEEEAKFYADLAEKVSRPSVKALFRRMSEESKVHELLLRKLFSKYFPGEEPVKVDVPPVEVVPFISKFESIEDYLEGLRYCMESELFAKRTYVLLSQVAENEGVRMVANELASIEQNHYEEIKAVYELVKTFRDREMLPESLKSGAYLITNESVGKYLILDLIDENKKLKLFVRENPEIFRRLIGENPNVEITWIAKVNAPNTISPTETHVLKKDIESFFEKVTKEGKKGVVFIQNVAYLVANLGFKETVDLLLHAKDLAVYYGGYLIITANPEVFEKTEWALLKLEFEVLF
soluble on expression in E. coli: not soluble

MSLTKILIGQTAGFTGPAGEQVKEMTRGAQLYLDAVNRAGGVYGRRIELISEDDGFDANVSKQRAHTLLTDKQVFALFLSRGTPNTEAIMSEAHAVGAPMVAPSTGASIFFDRPDPLVFVVRAKYQTEIAELVHHFETLGLKRLALVNVNDSFGKDTEAGFTTATQHLPPSTHQIVTVDRLKPNIETATAEIGKFAPNAVILACAGTTAQALAEALTKHGTVSQMATLSNNSSTAFARSLGNMARGMMVTQVMPSPVRATSPIGRELTASAKAAGVMPSYGMMEGYASAKLLVEGLKRAGKAPTRASFVAGLEAAGTIDLGGLDIRNGRNNHKGSSFVEITVIGPHGTFIKEGHHHHHH
soluble on expression in E. coli: not soluble

MKTIEEIKSTPKTVMKKPELLAPAGNLEKLKIAVHYGADAVFLGGQEYGLRSNADNFTMEEIAEGVEFANRYGAKIYVTTNIIAHDENIEGLESYLRNLEKTGATGIIVADPLIIETCKEVAPKLEIHLSTQQSLSNYKAVEYWKEEGLDRVVLARETGAMEMREMKEKVDIEIEAFIHGAMCIAYSGRCTLSNHMTARDSNRGGCCQSCRWDYELLEVDDNGELDVFYNQGEVTPFAMSPKDLKLIESIPQMMDIGVDSLKIEGRMKSIHYIATVVSVYRKVIDAYAADPDNFKINPEWLIELDKCANRDTAPAFFEGTPGYEEQMFGQQQSKKSSFDFCGLVLDYNEDTKIATIQQRNNFKPGQEIEFFGPEIETFTQVVEAIYDEEGNSLDAARHPLQIVQIKVDRPIYPNNMMRKEIG
soluble on expression in E. coli: not soluble
